This note sets out measurements from publication PMC6270119, “Application of Reductive ^13C-Methylation of Lysines to Enhance the Sensitivity of Conventional NMR Methods” (Molecules, 2013).

The nature of series [1]: Dynamic light scattering particle size analysis. In kind it is physicochemical. The following applies: DLS, 0.25 mM (250 μM) FM-HVR in PBS, room temperature. From the text:
This roughly corresponds to the monomeric form of peptide. However, upon introduction of farnesylation and methylation the hydrodynamic radius of the peptide increased to 8.15 ± 0.46 nm at a four times lower concentration as shown in Figure 2B. This hydrodynamic radius corresponded to a particle of 471.92 ± 63.75 kDa in size. Observation of higher order assemblies of FM-HVR allowed us to conclude that post-translational modifications in K-Ras can lead to aggregation through hydrophobic interactions.
For studying aggregation of peptides, dynamic light scattering experiments were performed on a DynaPro-801 molecular sizing instrument (Wyatt Technology Europe, Dernbach, Germany). The peptide samples were dialyzed against PBS. The sample volume of 250 μL was used for the experiments. […] Samples were centrifuged at 12000 rpm for 10 min before experiments. Analysis of the data was carried out using Dynamics software.

In series [2] the target is reductively methylated calmodulin (UniProt P0DP23). The experiment in a line: NMR titration; 1H-13C HSQC of 1 µM reductively methylated CaM with 0, 0.5, 1 and 1.5 µM FM-HVR (peptide not aggregated); 25 °C; 50 mM Tris-citrate pH 6.5, 50 mM NaCl, 5 mM MgCl2, 10 mM β-mercaptoethanol, 10 mM CaCl2.
For series [3] the target is unchanged. In words: NMR titration; 1H-13C HSQC of 70 µM reductively methylated CaM with FM-HVR at 0:1, 1:1, 2:1 and 3:1 molar ratios (aggregated FM-HVR); 25 °C; 50 mM Tris-citrate pH 6.5, 50 mM NaCl, 5 mM MgCl2, 10 mM β-mercaptoethanol, 10 mM CaCl2.
Series [4] addresses fully post-translationally modified (farnesylated and methylated) hypervariable region peptide of K-Ras4B (human). The experiment in a line: pyrene fluorescence (critical aggregation concentration); peptide at different concentrations with 2 µM pyrene in PBS; excitation scans 315-360 nm, emission 393 nm; ratio I334/I337 against the logarithm of the peptide concentration.

Bounds are passed on as bounds.

As to `COC(=O)[C@H](CSC/C=C(\C)CC/C=C(\C)CCC=C(C)C)NC(=O)C1CCC(CN2C(=O)CC(SC[C@H](NC(=O)[C@H](CCCCN)NC(=O)[C@H](CO)NC(=O)[C@H](CCCCN)NC(=O)[C@H](CCCCN)NC(=O)[C@H](CCCCN)NC(=O)[C@H](CCCCN)NC(=O)[C@H](CCCCN)NC(=O)[C@H](CCCCN)NC(=O)CNC(=O)[C@H](CC(=O)O)NC(=O)[C@H](CCCCN)NC(=O)[C@H](CO)NC(=O)[C@H](CCSC)NC(=O)[C@H](CCCCN)NC(=O)[C@H](CCC(=O)O)NC(=O)[C@@H](N)CCCCN)C(=O)O)C2=O)CC1` (some centres unmarked) [FM-HVR], in series [1], the hydrodynamic radius was 8.15 ± 0.46 nm and the “particle mass corresponding to hydrodynamic radius” value was 471.92 ± 63.75 kDa.

Regarding “fully post-translationally modified (farnesylated and methylated) hypervariable region peptide of K-Ras4B”, the FM-HVR to CaM titration ratio at saturation (FM-HVR per CaM) in series [2] was found to be 1; in series [3] it was 2. Further, in series [4], the critical aggregation concentration was more than 10 µM.
